Kd data for two substances are collected here from publication PMC6848142.

This data set deals with KRAS wild type. Put plainly: MST. Particulars: MST: labeled protein 20 nM final in PBS, RNA diluted in deionized water and mixed 1:1; RNA folded in TE (70 C 5 min, then ice 15 min); pH and assay temperature ….

As usually defined, the Kd is the concentration at which binding is half-saturated. High values mean a looser complex, low ones a tighter complex.

As to SNORD50A, the Kd worked out at 140 nM.
Under SNORD50B stands 122 nM.
